Test results from US7070788 (US Dept. of Health and Human Services, dated 2006).

How the values were obtained:
[1] = molecular target: hCG (LH/CG) receptor of MA-10 transformed murine Leydig cells (murine, UniProt P30730 27-700); assay: cell-based or functional assay
[2] = molecular target: human TSH receptor (CHO-JP09 cells) (human, UniProt P16473 21-764); assay: cell-based or functional assay

Chain of hCG (LH/CG) receptor of MA-10 transformed murine Leydig cells (P30730 27-700): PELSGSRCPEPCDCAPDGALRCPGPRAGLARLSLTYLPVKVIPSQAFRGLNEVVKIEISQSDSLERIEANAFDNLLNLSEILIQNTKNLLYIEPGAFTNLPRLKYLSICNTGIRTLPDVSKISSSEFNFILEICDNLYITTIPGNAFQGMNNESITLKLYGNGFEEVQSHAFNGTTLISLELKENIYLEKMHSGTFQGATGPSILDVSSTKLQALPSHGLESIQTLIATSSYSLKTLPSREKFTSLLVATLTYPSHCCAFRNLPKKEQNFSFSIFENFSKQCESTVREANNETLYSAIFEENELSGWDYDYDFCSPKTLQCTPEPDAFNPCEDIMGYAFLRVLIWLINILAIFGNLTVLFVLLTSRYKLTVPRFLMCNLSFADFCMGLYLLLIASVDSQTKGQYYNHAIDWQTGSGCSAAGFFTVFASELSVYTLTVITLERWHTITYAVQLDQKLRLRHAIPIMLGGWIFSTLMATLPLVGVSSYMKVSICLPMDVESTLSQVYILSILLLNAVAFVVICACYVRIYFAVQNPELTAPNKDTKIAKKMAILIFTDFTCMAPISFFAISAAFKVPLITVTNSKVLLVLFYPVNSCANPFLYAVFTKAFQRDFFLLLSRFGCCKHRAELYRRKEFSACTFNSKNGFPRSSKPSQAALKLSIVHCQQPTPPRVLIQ

B1: wild-type human chorionic gonadotropin (ligand)
chain 1: not shown
chain 2: SKEPLRPRCRPINATLAVEKEGCPVCITVNTTICAGYCPTMTRVLQGVLPALPQVVCNYRDVRFESIRLPGCPRGVNPVVSYAVALSCQCALCRRSTTDCGGPKDHPLTCDDPRFQDSSSSKAPPPSLPSPSRLPGPSDTPILPQ
Progesterone synthesis in MA10 cells, EC50 [1]: 6.9 ng/mL | Progesterone synthesis in MA10 cells, Max (%) [1]: 100 % of WT-hCG

B2: wild-type human thyroid stimulating hormone (ligand)
chain 1: not shown
chain 2: FCIPTEYTMHIERRECAYCLTINTTICAGYCMTRDINGKLFLPKYALSQDVCTYRDFIYRTVEIPGCPLHVAPYFSYPVALSCKCGKCNTDYSDCIHEAIKTNYCTKPQKSY
cAMP stimulation in JP09 cells, EC50 [2]: 6.7 ng/mL | cAMP stimulation in JP09 cells, Relative potency (WT = 1) [2]: 1 fold (WT = 1)
